Our source for the Km values is ChEMBL document CHEMBL2074029, “Substrate specificities of rat oatp1 and ntcp: implications for hepatic organic anion uptake” (Am J Physiol Gastrointest Liver Physiol, 2003).

What all share (assay type): functional, cell-based
Substrate in data set [1]: C[C@H](CCC(=O)NCCS(=O)(=O)O)[C@H]1CC[C@H]2[C@@H]3CC[C@@H]4C[C@H](O)CC[C@]4(C)[C@H]3C[C@H](O)[C@]12C
Kind of data set: (§1) TP_TRANSPORTER: uptake in Oatp1-expressing HeLa cells.

Substrate in data set [2]: C[C@H](CCC(=O)NCCS(=O)(=O)O)C1CC[C@H]2[C@@H]3C[C@H](O)[C@@H]4C[C@H](O)CC[C@]4(C)[C@H]3CC[C@]12C
The description is as §1.

Substrate in data set [3]: C[C@H](CCC(=O)O)[C@H]1CC[C@H]2[C@@H]3C[C@H](O)[C@@H]4C[C@H](O)CC[C@]4(C)[C@H]3CC[C@]12C
The data set is described as §1.

Substrate in data set [4]: C[C@H](CCC(=O)NCCS(=O)(=O)O)[C@H]1CC[C@H]2[C@@H]3CC[C@@H]4C[C@H](O)CC[C@]4(C)[C@H]3C[C@H](O)[C@]12C
In words: (§2) TP_TRANSPORTER: uptake in NTCP-expressing HeLa cells.

Substrate in data set [5]: O=C1OC(c2ccc(O)c(S(=O)(=O)O)c2)(c2ccc(O)c(S(=O)(=O)O)c2)c2c(Br)c(Br)c(Br)c(Br)c21
Described as §2.

Substrate in data set [6]: C[C@H](CCC(=O)NCCS(=O)(=O)O)C1CC[C@H]2[C@@H]3C[C@H](O)[C@@H]4C[C@H](O)CC[C@]4(C)[C@H]3CC[C@]12C
The description is as §2.

B1: Solute carrier organic anion transporter family member 1A1 (Rattus norvegicus) (protein)
chain: MEETEKKIATQEGRLFSKMKVFLLSLTCACLTKSLSGVYMNSMLTQIERQFDISTSVAGLINGSFEIGNLFFIVFVSYFGTKLHRPVVIGIGCVIMGLGCLLMSLPHFFMGRYEYETTISPTGNLSSNSFLCMENRTQTLKPTQDPAECVKEMKSLMWICVMVGNIIRGIGETPIVPLGISYIEDFAKSENSPLYIGILEMGKVAGPIFGLLLGSYCAQIYVDIGSVNTDDLTITPSDTRWVGAWWIGFLVCAGVNILTSIPFFFLPKALPKKGQQENVAVTKDGKVEKYGGQAREENLGITKDFLTFMKRLFCNPIYMLFILTSVLQVNGFINKFTFLPKYLEQQYGKSTAEAIFLIGVYSLPPICLGYLIGGFIMKKFKITVKKAAYLAFCLSVFEYLLFLCHFMLTCDNAAVAGLTTSYKGVQHQLHVESKVLADCNTRCSCSTNTWDPVCGDNGVAYMSACLAGCKKFVGTGTNMVFQDCSCIQSLGNSSAVLGLCKKGPECANRLQYFLILTIIISFIYSLTAIPGYMVFLRCVKSEEKSLGVGLHTFCIRVFAGIPAPVYFGALIDRTCLHWGTLKCGQRGACRMYDINSFRHIYLGLPIALRGSSYLPAFFILILMRKFQFPGDIDSSATDHTEMMLGEKESEHTDVHGSPQVENDGELKTKL
As a reminder, the Km is the substrate concentration at which the rate is half of its maximum. Take B1: the Km in data set [1] turned out to be 3.5 µM; in data set [2], 3.3 µM; in data set [3], 17.5 µM.

B2: Hepatic sodium/bile acid cotransporter (Rattus norvegicus) (protein)
chain: MEVHNVSAPFNFSLPPGFGHRATDKALSIILVLMLLLIMLSLGCTMEFSKIKAHLWKPKGVIVALVAQFGIMPLAAFLLGKIFHLSNIEALAILICGCSPGGNLSNLFTLAMKGDMNLSIVMTTCSSFSALGMMPLLLYVYSKGIYDGDLKDKVPYKGIMISLVIVLIPCTIGIVLKSKRPHYVPYILKGGMIITFLLSVAVTALSVINVGNSIMFVMTPHLLATSSLMPFSGFLMGYILSALFQLNPSCRRTISMETGFQNIQLCSTILNVTFPPEVIGPLFFFPLLYMIFQLAEGLLIIIIFRCYEKIKPPKDQTKITYKAAATEDATPAALEKGTHNGNIPPLQPGPSPNGLNSGQMAN
B2: the Km is 7.4 µM in data set [4], 3.7 µM in data set [5] and 6.8 µM in data set [6].
